Measurements: patent US20130331517A1, “Novel Polymer Derivative Of Cytidine Metabolic Antagonist” (NIPPON KAYAKU KABUSHIKI KAISHA, priority 2010, published 2013)

What was measured:
[1] = test system: human lung cancer LC-11-JCK; assay: Anti-tumor activity test, human lung cancer LC-11-JCK transplanted subcutaneously in F344 nude rat; assay type: in vivo; conditions: for Relative ratio of tumor volume: F344 nude rat, day 23 after administration start, relative to no-treatment group (100.0); for Anti-tumor effects in comparison to 3′-ethynylcytidine as the control drug: maximum dose, when the change of the body weight was about 10% or less of the maximum decrease rate
Description: The human lung cancer LC-11-JCK which had been subcultured under the skin of a rat was made to a block of about 2 mm square, and transplanted subcutaneously into the dorsal part of F344 nude rat using an over-needle catheter. From day 13 after the tumor transplant, the polymer derivative of the present invention (Compound 5, Compound 10) was administered intravenously single time in the dose listed in Table 1. In addition, the control drug (3′-ethynylcytidine; ECyd) was administered subcutaneously by infusion over 24 hours using Alzet pump. Meanwhile, each compound was used as dissolved in 5% glucose solution. The administration was performed such that the dose when the change of the body weight was about 10% of the maximum decrease rate was taken as the maximum dose.
The tumor volume was measured on the start day of the administration and on day 23 after the administration start with vernier calipers for the major axis (L mm) and minor axis (W mm) of the tumor, and the tumor volume was calculated from (L×W^2)/2, and the relative ratio of the tumor volume with respect to the tumor volume of the no-treatment group (control) was listed in Table 1.

[2] = Particle size (RMS radius) and micelle formation in aqueous solution by dynamic and static light scattering; assay type: physicochemical; conditions: aqueous solution 1 mg/mL; for RMS radius by Gaussian distribution analysis (dynamic light scattering): volume weighting
Description: Hereinafter, the present invention will be further explained with Examples. However, the present invention is not limited to these Examples. Meanwhile, when the compound of the present invention forms particles such as a micelle in an aqueous solution in Examples, the size of the particles (particle size) is indicated with Gaussian distribution analysis by dynamic light scattering method or by static light scattering method as RMS radius. The former was measured with Zeta Potential/Particle sizer NICOMP™ 380ZLS (manufactured by Particle Sizing Systems), and the latter was measured with DAWN EOS™ (manufactured by Wyatt Technology), and calculated.

[3] = Medicament release of 3′-ethynylcytidine polymer derivative in the absence of enzyme (PBS, pH 7.4, 37° C.); assay type: physicochemical; conditions: 1 mg/mL, no hydrolysis enzyme
Description: Compound 5, Compound 10, Compound 15, Compound 21 and Compound 22, and PEG-Glu-ECyd in which 3′-ethynylcytidine derivative is bonded to a polyethylene glycol-polyglutamic acid block copolymer, and PEG-Glu-(ECyd, PheOBzl) in which 3′-ethynylcytidine and phenylalanine benzyl ester are bonded to a polyethylene glycol-polyglutamic acid block copolymer, which were manufactured by the method described in the pamphlet of WO 2006/120914 A as the comparative compounds, were dissolved in PBS solution (phosphate buffered saline; pH 7.4) at 1 mg/mL of the concentration, respectively, and incubated at 37° C. The 3′-ethynylcytidine released from each polymer derivative was quantified using HPLC. The ratio to the total amount of the medicament in the polymer derivative found out from the quantified value and the content of the medicament of the polymer derivative are indicated in FIGS. 1 to 3.

[4] = single intravenous administration, dose 6 mg/Kg in conversion to 3′-ethynylcytidine
[5] = single intravenous administration, dose 12 mg/Kg in conversion to 3′-ethynylcytidine

| Compound | Relative ratio of tumor volume ([1]; subcutaneous infusion over 24 hours using Alzet pump, dose 6 mg/Kg) | Micelle formation in water [2] | RMS radius by static light scattering method [2] [nm] | RMS radius by Gaussian distribution analysis (dynamic light scattering) [2] [nm] | Release of 3′-ethynylcytidine from the polymer derivative [3] | Release rate of 3′-ethynylcytidine relative to the comparative compounds [3] | Relative ratio of tumor volume [1, 4] | Relative ratio of tumor volume [1, 5] | Anti-tumor effects in comparison to 3′-ethynylcytidine as the control drug [1] | Release of 3′-ethynylcytidine relative to PEG-Glu-ECyd [3] |
| --- | --- | --- | --- | --- | --- | --- | --- | --- | --- | --- |
| C#C[C@@]1(O)[C@@H](CO)O[C@@H](n2ccc(N)nc2=O)[C@@H]1O [Control drug, 3′-ethynylcytidine, reference compound] | 49.4 |  |  |  |  |  |  |  |  |  |
| amide-bonded body of block copolymer including methoxy polyethylene-glycol structural moiety having 12,000 of the molecular weight and polyglutamic acid moiety having 21 of the polymerization number, to aspartic acid-1-adamantane methyl amide-4-(3′-ethynylcytidine)amide [Compound 15] |  | formed a micelle in water | 13 | 20 | release 3′-ethynylcytidine despite the absence of a hydrolysis enzyme | equal to or more than that of the comparative compounds |  |  |  |  |
| amide-bonded body of block copolymer including methoxy polyethylene-glycol structural moiety having 12,000 of the molecular weight and polyglutamic acid moiety having 21 of the polymerization number, to aspartic acid-1-butyl amide-4-(3′-ethynylcytidine)amide [Compound 10] |  | did not form a micelle in water at this concentration |  |  | release 3′-ethynylcytidine despite the absence of a hydrolysis enzyme | equal to or more than that of the comparative compounds | 46.7 | 26.4 | strong anti-tumor effects | more rapidly than PEG-Glu-ECyd |
| amide-bonded body of block copolymer including methoxy polyethylene-glycol structural moiety having 12,000 of the molecular weight and polyglutamic acid moiety having 21 of the polymerization number, to aspartic acid-1-phenylalanine-(4-phenylbutyl ester)-4-(3′-ethynylcytidine)amide [Compound 21] |  | formed a micelle in water | 40 | 41 | release 3′-ethynylcytidine despite the absence of a hydrolysis enzyme | equal to or more than that of the comparative compounds |  |  |  |  |
| amide-bonded body of block copolymer including methoxy polyethylene-glycol structural moiety having 12,000 of the molecular weight and polyglutamic acid moiety having 21 of the polymerization number, to aspartic acid-1-phenylbutyl amide-4-(3′-ethynylcytidine)amide [Compound 5] |  | forms a micelle in water | 11 | 18 | release 3′-ethynylcytidine despite the absence of a hydrolysis enzyme | equal to or more than that of the comparative compounds | 44.9 | 29.3 | strong anti-tumor effects | more rapidly than PEG-Glu-ECyd |
| amide-bonded body of block copolymer including two methoxy polyethylene glycol moieties having 5,000 of the molecular weight and polyglutamic acid moiety having 21 of the polymerization number, to aspartic acid-1-adamantane methyl amide-4-(3′-ethynylcytidine)amide [Compound 22] |  | formed a micelle in water | 8 | 14 | release 3′-ethynylcytidine despite the absence of a hydrolysis enzyme | equal to or more than that of the comparative compounds |  |  |  |  |
